Experimental data published in the DeepSol protein solubility set.

Test: soluble on expression in E. coli; label from the status in PepcDB or PDB records

Row | Sequence | soluble on expression in E. coli
1 | MGSDKIHHHHHHMLIEKELSELTVGHYVVKIIQQEGCFSLTAAGHIKSKAVINHLKSKNVHRVLIDDSKTLLSSSHEKSATVDAPSIVKNKELKHAKAIFDQSKSIQKKLFHDALSGSCLDLSPVVEVTNKSIDAIFNSPDSLACMLNIREKDEYLLEHSVAVSVYITIFSRYLDLERHIIEQLSIGAFLHDIGKIKIPDKILNKPGKLTVDEFTIMKTHANHSIAIIKETPGISALSLEVAALHHEKLDGSGYPFQVDGEDISQYGRMIAICDIFDALTATRVYKEGFTHGKAFSILRELAKQGQLDASLVDHFIKCVGVFPVGSLVQLKSNKLALVQERNDKDPINPQVHSFYSVKLNQFLNKQEIDLSGSEDSIVKSVRAEEFDLDMKQIVDMLLMEG | not soluble
2 | MTKRIEIKPATAADQAALAEIYLVDRQQDFPWVTDPQLQDFNEDSRGEFVLVAWIDGQRAGFCSLYRLANFIHLLFVAPDFRHLKVGERLLTEMRQYATEPLTLKCVMANENALRFYAQVGFRIVKADADALPPNYTLRDTHTEQYVALVDVMANERKLN | soluble
3 | MTHVTPFSNPFLLGFETIEKTLRRIGKADETYPAYNIERLHKNDDASHIRITLAVAGFKVNNLNILLDDNQLIIHGKQTDSQNHQYLYRGIAARQFQRTFVLVEGMHVTNAELKNGLLSINLYQPKTKKQMKQIPIKVSNKS | not soluble
4 | RTLGEVWKERLNQMTKEEFTRYRKEAIIEVDRSAAKHARKEGNVTGGHPVSRGTAKLRWLVERRFLEPVGKVIDLGCGRGGWCYYMATQKRVQEVRGYTKGGPGHEEPQLVQSYGWNIVTMKSGVDVFYRPSECCDTLLCDIGESSSSAEVEEHRTIRVLEMVEDWLHRGPREFCVKVLCPYMPKVIEKMELLQRRYGGGLVRNPLSRNSTHEMYWVSRASGNVVHSVNMTSQVLLGRMEKRTWKGPQYEEDVNLGSGTRAV | soluble
5 | MGQNSSQIPEHELEHLSIESGLSRGGILKLYGRFISLATHRDKTTNEYFLTKGDFQSIAELKQNPLGDRIIDAFFADAEVLERRKVYFKDFVKVLSHFRPINKNKPHPWNSREAKLRFAFTMYDLNKSGTITKDEFQDILAMMIGVGVPKDQVNSIADRTMREADRDGDGFITFQEFCNAMEKTDIEQKMSFRFLT | not soluble
6 | MSHPRYKSLLNRDRIVEAFESGVLAKGGMIAHGRGETFDYLIGESTTDAALNSIKVSAALLVLAENPVISVNGNSVALAKDEFVELAKELNGKIEVNLFYRTTEREEKIKDVFESDINGGIVLLGIDNADKQIPGIDHLRGKVSESGIYTSDVVLVPLEDGDRAEALVKMGKTVIAIDLNPLSRTARKSTISIIDELTRCIPLITEYVREYKKMDRAELLKIVENYDNEENLRNILNLISKRLTSVDLEHHHHHH | not soluble
7 | MFRGIVQGRGVIRSISKSEDSQRHGIAFPEGMFQLVDVDTVMLVNGCSNTVVRILGDMVYFDIDQALGTTTFDGLKEGDQVNLEIHPKFGEVVGRGGLTGNIKGTALVAAIEENDAGFSVLIDIPKGLAENLTVKDDIGIDGISLPITDMSDSIITLNYSRDLLASTNIASLAKDVKVNVEILNEW | soluble
8 | LAGLALAATLLATGKRPVPDQLAGYHETTLSVGHRDVPVSLHIWYPAAQDGTAELVGQNALFYGQYVLRDAKPAPGAHPVVVFSHGSGGNANNHGWLATELARQGMIVVAPNHPGTMSRDSDPHRTPHIWERARDLHAILDSLETNPPLGMQPDMDRVASAGFSLGGFSALSIAGVRVSKAAFIDYCDRHAGEFDCGWMQAASVDFAAIDPAAYEADYRDPRIKATVSIDPALPQAMTGDSLTAATLPILLVSLGQGEEVPPATRVDAMARQMPQARLVETPGAWHFSFLSECSTLGWIIIGLMGEENICSDIGMRDRGVLHEELKAVISTFLS | not soluble
9 | MPPCPPQQNRNRLSQLPVGELGEMELTWQEIMSITELQGLNVPSETSFEPQAPTPYPGPLPPPTYCPCSIHPDAGFSLPPPSYELPASTPHVPELPYSYGNVAIPVSKPLTLSGLLNEPLPDHLALLDIGLPVGQPKPQEDPESDSGLSLNYSDAESLELEGMEAGRRRSEYADMYPVEYPYSLMPNSLAHPNYTLPPTETPLALESSSGPVRAKPAVRGEAGSRDERRALAMKIPFPTDKIVNLPVDDFNELLAQYPLTESQLALVRDIRRRGKNKVAAQNCRKRKLETIVQLERELERLSSERERLLRARGEADRTLEVMRQQLAELYHDIFQHLRDESGNSYSPEEYVLQQAADGAIFLVPRGTKMEATD | soluble
10 | NFTHVKGSVGSNSQYVGQVDSSMAFSDKVNGRINLEYRQADSYVDHVDSNDFFIAPTIRVLPADGHTIDIDVEYAHQELVPYRGVPSKNGKPVDLPVSTYFGGTNDYQESDSLRVAVDYEWRLNDQWVWNNRAAFNHIELEQKGTRQGKVTGNEVSQTVNNFGYDPRTTTTLQSELIWETNDNQLMLGADFNQIDIDLTLASDKTLPPQNIYNPVVGPTPDPGFKPFRDNTTTTTGVYVQDVYTWGDLSVIGNVRYDSMELEQQKAGSGKEKLDDDKVSYRAGLVYRINYDTSVYASLARSWQLPYAGIYINPKLAEFFHTDLKEVGAKAYLLDNALMLNAALFQIDQEQPQTNVDGDVIDKIEVRHQGIELEARGQITKQWDISVGYSYLDAEDKATGKKPNDVSDHLFSLWSTYQLDDNWRLGGGVKYVGDRYAGNDEAVALGDYTTVDLMAAYTTGRHKIQANAYNILDEKYILGATNGTSGLNQIGYGAPAEFMLSYGYQF | not soluble
11 | MGSDKIHHHHHHMKPSRFNLVINESDGTLLFNTLSQALLWIDRKNTNKVLKTLEDPSSTELSKTEVEKLKRGMFLLDDNFDELEFLKFRFNTYRYSDRFLRYTIVLTHSCNFDCVYCYQKVLHISSGSYISEKVQSNFLLDVERKLEYQKPNLLSVTFYGGEPLLLEETVVNLSSKLKRLCEKYGVKYDSFIVTNGYLLTEKMVDDLQKAGIKALDITLDGTEVYHDRYRKARNGAPTFSSIFENIFRAVNKGLFVQIRVNVSRENIEDVKKLIDRIAEKKLRVEFNFQPIEIVEGNPTGFQDTALNTEEFAEIETKLWWYIREKIPEYPFEYFKKPRFARCDAMCKNSFVVDVDGRVYKCWGELGMENCSGFLKETGVEFTGSYLKWLTYDPLEDEECRRCLVLPFCMGGCAFNRVVYRTLKSSKVKKPHTCIPLRYNLNEFIKIVADYKRRSAVHGISQRSSGG | not soluble
12 | MKVTLPDFRRAGVLVVGDVMLDRYWYGPTCRISPEAPVPVVKVDTIEERPGGAANVAMNIASLGAVARLVGLTGIDDAARALICKLSEVRVRCDFVSVPTHPTITKLRVLSRNQQLIRLDFEEGFDGVDPTPIFERIQLALPQIGALVLSDYAKGALNSVQPMIQLARKANVPVLIDPKGSDFERYRGATLLTPNLSEFEAVVGRCKNEEELVNRGMQLVADFELSALLVTRSEQGMTLLQLGKPPLHLPTQAKEVFDVTGAGDTVIGVLAAALAAGNSLEESCFLANAAAGVVVGKLGTSTVSPIELENAIRGRAETGFGVMDEQQLKIAVAQARQRGEKVVMTNGIFDILHAGHVSYLANARKLGDRLIVAVNSDASTKRLKGEKRPVNPLEQRMVVLGALEAVDWVVPFEEDTPQRLIADILPDLLVKGGDYKPHEIAGSEEVWAAGGEVKVLNFEDGVSTTNIIQSIKNGRG | not soluble
13 | AAMKVYDVTAPIYEGMPVYKNKPEKQPKRTTITNGYVTESRIDMDVHTGTHIDAPLHMVEGGATFETIPLNDLVGPCKLFDLTHVNDRITKDDIAHLDIQEGDFVLFKTKNSFEDAFHFEFIFVAEDAARYLADKQIRGVGIDALGIERAQEGHPTHKTLFSAGVIIIEGLRLKDVPEGRYFMVAAPLKLVGTDAAPARVLLFDREP | soluble
14 | MPQPAARVTDMHVCPMVTPGLPPVPHVGGPLLPPGSPSVFIGGLPAATLGTLALCSGPVDVVIMGSVKVLICGKPAARMGDICAHGGTIVSGYPQVLIG | not soluble
15 | FLRDAPKHLNPDGEIRLIISDLAEHLHLRPSDFLDKAFAQAGLRVADMMKTKPKHKKAANPSDPLAFARTRETTFLYRLKKA | not soluble
16 | MDNKVILVGGFHEIIELCEDNDIEIAGIIDNYLTNDTYWGYPIIGTDDKAKVLFETYKNVPVLITPDVPHVRYKLYHYYKSIGFQVASLISRDASISRSAIIGEGTIIQRGANLSSNIKIGQMVKVNTNANIMHDCLIGNYVTVAPNAVLLGKVEIDDKAYIGANATLLPSVKIGENVTVGAGSVVTKSVRPNTVVKGSPLEHHHHHH | soluble
17 | MAHHHHHHMNFLNDEILKKSCEIEKLQDRLLDYESKLLIYENNNEIKILKKNEDHLRKLLSKHIHRNEQLLNTTFLLQKSTLENNSLEKKIIELRAKSYRKDQEIKKLQETKSIRKSPSSNCSHNSQEYSMDLIDDLNEDNYNLKYYHNNSIVGDQENSVYTSKKSYDKNITIGSLADTEKRSIKIKNIIPHSHNNEDPVHFALCEYLNCFKKNNLSIKINKLDDNTYLLNDKKVVISFINGDLYVEDDASPIKLQDYLLKTVVR | soluble
18 | MGSDKIHHHHHHMTLDSIERAIADIANGKPVVVVDSEDRENEGDLIFAADKATPELVAFMVRYSSGYICASLTSEECDRLQLPPMTSHNEDARGTAYAVTVDANTGTTGISATSRADTLRKLADSQFGPQDFTRPGHVVPLRAKAGGVLERAGHTEAAVDLARMAGLNPAGVLCEVVSEDDPTDMARAPELRRFADRHDLALISIEQLIEWRRRYELLVERAVSTQLPTEFGRFTAVGYRGIVDGVEHIALVAGDITSDEGKDVLLRVHSECLTGDVLGSRRCDCGPQLQASLRAISERGRGVVVYLRGHEGRGIGLLHKLQAYHLQDEGADTVDANKALGLPVDARNYSVAAHILRDLGVQSVCLLTNNPEKSLELERYGVKVTGREPVKVEVHEDNIRYLTTKRDRMNHDLPWIAEYKKEQS | not soluble
19 | MGSDKIHHHHHHVQVVSISSLKGGVGKTSVTTGLASAALAAGIPTLVVDLDPHADASTALGVQPDEQLDIGRMLKSPRRARLSQNVVTSGWVARENYNGARPAVLDVAVGSAYTGIYDRPDLGRRDLRRLSAVLAGTDKYQLILVDCPPSLNGLTRMAWSASDKVALVAEPGLFSVAGTERTMRAIQLFRQEFAPNLSPAGIIANRVRSGSSEHAFRLAEMQSMFGELLLTPYIPEQANWQQIQGAAHSVHHWPGDSAKNAASLFNTLLDNLMASNDAGSAGALRERSLR | not soluble
20 | MVVISVIAIVLLLVYLDDKLGQFIFRNGRKTVVYPERRSDISLYINGRHLFSDYFAELGRARDHIHVLFYIIKNDETSAPFFQILKEKAAAGVKVRVLTDWVGSFGLPKALIRSLEESGVEFAYARKPRFPFFIYRLNRRNHRKITVIDGRVGYIGGFNIGREYNGKDANFGEWRDYHLKVNGEGVHDLQEQFLHDWEEATGRTVPDKHRYFPPLPAGAIRHQLVATNGAALEEQFIEVIRQAKKEIMIGSPYFIPSRPLFNELMQALRRGVRVTVLVPLKADHLFVKEAAYPYFYRLLKAGARIYRFYQGFYHAKTLVIDEEWCDVGTANFDRRSLFLNGEINCYVFDRGFTRLVKRAIERDLLRRRAADGRLLAKTFAS | not soluble
21 | MPPKIAEVIQHDVCAACGACEAVCPIGAVTVKKAAEIRDPNDLSLYEKGAAFQVCEGCLTCSRICPVVDGFIENELLNVRKFFGAKSKDNAGSQDGGVTSGILKALFNKGEIDCAVGITRNENWEPEVVLLTSAEDVERTRGTKYTSDPVVAALREAFEKYDRIAVVGVPCQAHAARLIRENVNEKIVLIIGLLCMESFHHDVMLDKIIPEIMKVNVRDIVKMEFTKGKFWVYTKDGEVHSVPIKDIAKYARNPCHHCCDYTSVFADISVGSVGAPDGWNSVFIRTEIGEKYFDMVRDEMEIMEDPKPGLELVGKLIEMKRKGNAEHFQEVCKEFSFETGIRSETVLEHHHHHH | soluble
